Assay results as given in patent publication US10100120B2, “Antibody which specifically binds to human CRTH2” (KYOWA HAKKO KIRIN CO., LTD, priority 2015, dated 2018).
Positions count from the first letter of the chain named.

Experiments:
[1] = biological target: T1, mutated human CRTH2 with amino acid substitution (Homo sapiens, UniProt Q9Y5Y4, D177A/G178A/R179A); test: Epitope analysis using CHO-S cells which express mutated human CRTH2 with amino acid substitution; assay type: binding; conditions: mutant D177A, G178A, and R179A; antibody 10 μg/mL; relative to wild-type = 100%
T1 construct: inserting genes encoding various mutants with amino acid substitution obtained by deleting termination codons; expressed in transfected cells; host or cells: CHO-S cells (Lifetechnologies), transient (phmAG1-MNLinker vector)
T1 sequence (Q9Y5Y4 1-395 D177A/G178A/R179A): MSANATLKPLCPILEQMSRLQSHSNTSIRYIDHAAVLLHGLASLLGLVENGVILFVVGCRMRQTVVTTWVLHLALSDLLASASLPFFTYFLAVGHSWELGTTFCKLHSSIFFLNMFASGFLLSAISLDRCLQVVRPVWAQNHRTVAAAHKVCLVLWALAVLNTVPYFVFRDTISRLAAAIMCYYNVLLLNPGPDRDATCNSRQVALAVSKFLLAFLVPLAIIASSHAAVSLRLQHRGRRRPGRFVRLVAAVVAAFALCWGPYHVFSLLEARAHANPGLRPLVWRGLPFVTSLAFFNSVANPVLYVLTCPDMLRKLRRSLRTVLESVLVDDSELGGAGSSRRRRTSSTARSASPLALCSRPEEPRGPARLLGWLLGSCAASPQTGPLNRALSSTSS
In short: (§1)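 CHO-S cells transiently expressing alanine-substituted human CRTH2 extracellular mutants, C-terminally Azami-Green tagged, 24 h post-transfection. Antibodies at 10 μg/mL, 4 °C 1 h, then Alexa647 anti-IgG secondary 4 °C 1 h; flow cytometry on Azami-Green-positive cells. Reactivity = Alexa647 intensity divided by Azami-Green intensity.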

[2] = biological target: T2, mutated human CRTH2 with amino acid substitution (Homo sapiens, UniProt Q9Y5Y4, R195A); test: as above; assay type: binding; conditions: mutant R195A; antibody 10 μg/mL; relative to wild-type = 100%
T2 construct: inserting genes encoding various mutants with amino acid substitution obtained by deleting termination codons; expressed in transfected cells; host or cells: CHO-S cells (Lifetechnologies), transient (phmAG1-MNLinker vector)
T2 sequence (Q9Y5Y4 1-395 R195A): T1 sequence (Q9Y5Y4 1-395 D177A/G178A/R179A) with A177D, A178G, A179R, R195A
In short: as §1

reactivity against cells expressing mutated human CRTH2 [1]: lost
reactivity against cells expressing mutated human CRTH2 [2]: lost
B1: LV0HV1: humanized Lym2 antibody, VL LV0 (SEQ ID NO: 33), VH HV1 (SEQ ID NO: 51) (antibody, V domains shown)
VH: EVQLVESGGGVVQPGRSLRLSCAASGFTFSNYYMAWVRQAPGKGLEWVATISYDGSSTYYRDSVKGRFTISRDNAKNSLYLQMNSLRAEDTATYYCARHRGYYYSGAGYFDYWGQGTMVTVSS
VL: DIVMTQTPLSLPVTPGESASISCRSSQSLEYSDGYTYLEWYLQKPGQSPQVLIYGVSNRFSGVPDRFSGSGSGTDFTLKISRVEAEDVGVYYCFQATHDPLTFGQGTKLEIK
